Experimental data taken from US20260216242A1 (ALMAC DISCOVERY, published 2026).
Residue numbers refer to the chain shown, from its start. Numbers in names are those of the source. One block for each binder: values may come before it.

Columns and labels:
[1] = molecular target: T1, human ALPPL2 (alkaline phosphatase, germ cell type) expressed on the surface of CHO cells (human, UniProt P10696 20-503); assay: cell-based or functional assay
[2] = molecular target: T2, human ALPI (intestinal alkaline phosphatase) expressed on the surface of CHO cells (human, UniProt P09923 20-503); assay: cell-based or functional assay
T2 sequence (looked up): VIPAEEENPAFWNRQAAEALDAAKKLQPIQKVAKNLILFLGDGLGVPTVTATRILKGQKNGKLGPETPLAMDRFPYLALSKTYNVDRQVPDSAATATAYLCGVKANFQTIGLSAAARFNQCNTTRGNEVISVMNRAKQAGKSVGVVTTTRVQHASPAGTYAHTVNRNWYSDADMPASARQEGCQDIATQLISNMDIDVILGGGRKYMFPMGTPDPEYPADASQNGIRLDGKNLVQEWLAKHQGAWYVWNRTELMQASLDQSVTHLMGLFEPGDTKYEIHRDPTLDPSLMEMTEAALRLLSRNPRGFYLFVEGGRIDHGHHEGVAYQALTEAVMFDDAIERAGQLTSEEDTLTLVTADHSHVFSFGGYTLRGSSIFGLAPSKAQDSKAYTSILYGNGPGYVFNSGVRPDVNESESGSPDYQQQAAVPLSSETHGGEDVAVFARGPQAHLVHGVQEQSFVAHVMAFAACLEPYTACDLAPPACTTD

[3] = molecular target: T3, human ALPL (tissue non-specific alkaline phosphatase) expressed on the surface of CHO cells (human, UniProt P05186 18-501); assay: cell-based or functional assay
T3 sequence (looked up): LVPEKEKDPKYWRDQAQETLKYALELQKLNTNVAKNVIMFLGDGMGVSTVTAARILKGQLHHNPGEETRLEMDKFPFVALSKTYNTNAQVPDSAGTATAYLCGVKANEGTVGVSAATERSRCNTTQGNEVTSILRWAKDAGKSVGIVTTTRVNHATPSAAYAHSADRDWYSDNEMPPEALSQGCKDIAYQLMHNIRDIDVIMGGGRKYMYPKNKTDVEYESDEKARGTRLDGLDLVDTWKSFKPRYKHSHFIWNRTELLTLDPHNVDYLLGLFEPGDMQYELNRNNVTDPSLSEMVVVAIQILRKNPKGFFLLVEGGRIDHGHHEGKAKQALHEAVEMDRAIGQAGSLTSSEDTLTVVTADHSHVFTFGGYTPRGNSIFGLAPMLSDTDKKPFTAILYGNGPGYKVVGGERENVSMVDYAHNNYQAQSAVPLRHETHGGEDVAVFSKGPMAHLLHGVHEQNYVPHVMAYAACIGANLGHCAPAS

[4] = molecular target: T3, human ALPL (tissue non-specific …); assay: flow cytometry, CHO-ALPL cells
[5] = molecular target: T2, human ALPI (intestinal alkaline …); assay: flow cytometry on CHO-ALPI cells
[6] = molecular target: T4, human ALPP (alkaline phosphatase, placental type) expressed on the surface of CHO cells (human, UniProt P05187 23-506); assay: flow cytometry on CHO-ALPP cells, apparent KD (KDapp)
T4 construct: also called CHO-ALPP; hALPP
Procedure: (§1) Biparatopic VHH-hFc drug conjugates were assessed for human ALPP, ALPPL2, ALPI and ALPL cell-surface binding by flow cytometry. Binders were screened on CHO cells stably expressing human ALPP, ALPPL2, ALPI or ALPL.
(§2) Cell surface binding of test agents to hALPP isoforms was characterized in four CHO-ALPP isoform transfectant cell lines (CHO-ALPP, CHO-ALPPL2, CHO-ALPI and CHO-ALPL) and the resulting KDapp values determined. Adherent cells were detached from tissue culture flasks by incubating with 0.1% EDTA/PBS solution at 37° C. for […] or until cells detached easily. Cells were re-suspended in ice-cold PBS/2% FCS in 15 ml tubes and centrifuged at 1700 rpm for 5 mins at 4° C. Supernatant was removed and the cell pellet re-suspended in PBS/2% FCS. […] Cells were incubated with 100 μl of test agents at a range of concentrations, plus controls for 1 hr on ice. The sample plate was centrifuged at 1700 rpm for 5 mins at 4° C. The supernatant was removed, and a wash performed by re-suspending the cell pellets in 0.25 mL of ice-cold PBS/2% FCS using a multichannel pipette. Samples were again centrifuged at 1700 rpm for 5 min at 4° C. Supernatant was removed and two further washes performed as described. After the final wash and centrifugation step, excess liquid was removed by blotting the plate on tissue paper. Binding of VHH-hFc agents was determined by adding 100 μl of Fitc-anti-human Ab (ThermoFisher) and incubating for 30 mins on ice in the dark. Wash steps were performed as described previously. All cell pellets were finally re-suspended in 0.28 ml of ice-cold PBS/2% FCS and left on ice in the dark prior to analysis on a Merck-Millipore Guava EasyCyte HT or Thermo Fisher Attune N×T flow cytometer.

[7] = molecular target: T1, human ALPPL2 (alkaline phosphatase, …); assay: flow cytometry on CHO-ALPPL2 cells, apparent KD (KDapp)
Procedure: as §1, §2

T4 sequence (P05187 23-506 limits assumed): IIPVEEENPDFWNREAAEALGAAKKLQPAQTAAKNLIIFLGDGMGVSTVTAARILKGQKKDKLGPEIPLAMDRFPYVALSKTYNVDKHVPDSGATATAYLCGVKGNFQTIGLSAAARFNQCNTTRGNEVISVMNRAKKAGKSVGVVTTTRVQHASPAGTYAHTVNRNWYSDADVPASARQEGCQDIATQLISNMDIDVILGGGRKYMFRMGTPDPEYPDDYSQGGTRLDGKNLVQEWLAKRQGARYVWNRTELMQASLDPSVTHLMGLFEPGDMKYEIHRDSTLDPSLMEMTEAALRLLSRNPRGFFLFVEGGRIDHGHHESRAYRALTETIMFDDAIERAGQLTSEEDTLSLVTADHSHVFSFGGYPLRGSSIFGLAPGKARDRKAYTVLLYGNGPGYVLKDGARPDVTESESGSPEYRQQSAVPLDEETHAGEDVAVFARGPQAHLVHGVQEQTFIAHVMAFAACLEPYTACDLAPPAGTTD
T1 sequence (P10696 20-503): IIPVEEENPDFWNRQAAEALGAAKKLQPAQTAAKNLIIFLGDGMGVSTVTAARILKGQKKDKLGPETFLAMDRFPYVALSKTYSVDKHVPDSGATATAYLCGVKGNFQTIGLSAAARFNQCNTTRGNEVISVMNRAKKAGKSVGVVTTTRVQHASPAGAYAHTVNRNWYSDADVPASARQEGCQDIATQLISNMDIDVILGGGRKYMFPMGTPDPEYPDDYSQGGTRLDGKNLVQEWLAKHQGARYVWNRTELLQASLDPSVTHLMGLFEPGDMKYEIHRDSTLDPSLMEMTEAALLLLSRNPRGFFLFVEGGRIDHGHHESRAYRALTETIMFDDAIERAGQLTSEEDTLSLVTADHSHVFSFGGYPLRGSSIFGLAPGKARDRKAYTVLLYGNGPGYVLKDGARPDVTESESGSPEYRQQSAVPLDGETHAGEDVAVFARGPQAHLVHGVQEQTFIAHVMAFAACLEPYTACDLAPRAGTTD

MFI on CHO-ALPI cells at 350 nM as percent of MFI on CHO-ALPP cells (KDapp not-determinable) [5]: ≤ 1% | Kd [6]: 8.5 nM | Kd [7]: 4.2 nM
B1: A06 E06-hFc (S239/442C T366Y/Y407T), [G4S]3 linker, MC-vc-PAB-MMAE conjugate, #639 (Fc fusion, DAR 4)
chain 1: QVHLVESGGGLVQAGGSLRLSCAASGRTFLSMGWFRQAPGKEREFVAAISWTGGSTGYADSVKGRFTISRESDKETMYLQMNSLKPEDTAVYYCAARGDVYYGGDDATRYKYWGQGTQVTVSSGGGGSGGGGSGGGGSEPKSSDKTHTCPPCPAPELLGGPCVFLFPPKPKDTLMISRTPEVTCVVVDVSHEDPEVKFNWYVDGVEVHNAKTKPREEQYNSTYRVVSVLTVLHQDWLNGKEYKCKVSNKALPAPIEKTISKAKGQPREPQVYTLPPSRDELTKNQVSLYCLVKGFYPSDIAVEWESNGQPENNYKTTPPVLDSDGSFFLYSKLTVDKSRWQQGNVFSCSVMHEALHNHYTQKSLCLSPGK
chain 2: QVHLVESGGGLVQAGGSLRLSCAASRRSFSEYAMGWFRQAPGKEREFVAAIGWSGVIEYADSVKGRFTISRDNAKDTVYLQMNSLKPEDTAVYYCAAGLGIRVVSQTPAYWGQGTQVTVSSGGGGSGGGGSGGGGSEPKSSDKTHTCPPCPAPELLGGPCVFLFPPKPKDTLMISRTPEVTCVVVDVSHEDPEVKFNWYVDGVEVHNAKTKPREEQYNSTYRVVSVLTVLHQDWLNGKEYKCKVSNKALPAPIEKTISKAKGQPREPQVYTLPPSRDELTKNQVSLTCLVKGFYPSDIAVEWESNGQPENNYKTTPPVLDSDGSFFLTSKLTVDKSRWQQGNVFSCSVMHEALHNHYTQKSLCLSPGK
modifications: MC-vc-PAB-MMAE on Cys of S239C and S442C (EU numbering)
notes: Biparatopic knob-into-hole VHH-hFc heterodimer, DAR 4; The assignment of T366Y to the first named VHH and Y407T to the second follows the order of the name; No paragraph spells out this pair; also called A06-E06 hFc-vcPAB-MMAE; A06-E06hFc-vc-MMAE
IC50 at 96 h, cell-killing of CHO-ALPPL2 cells [1]: 8.6 nM | IC50 at 96 h, cell-killing of CHO-ALPI cells [2]: > 1000 nM | IC50 at 96 h, cell-killing of CHO-ALPL cells [3]: > 1000 nM | binding result [4]: no binding (tested: 350 nM (highest concentration))

MFI on CHO-ALPI cells at 350 nM as percent of MFI on CHO-ALPP cells (KDapp not-determinable) [5]: ≤ 1% | Kd [6]: 8.5 nM | Kd [7]: 3.7 nM
B2: A06 E10-hFc (S239/442C T366Y/Y407T), [G4S]3 linker, MC-vc-PAB-MMAE conjugate, #664 (Fc fusion, DAR 4)
chain 1: B1 chain 1
chain 2: QVQLVESGGGLVQAGGSLRLSCAVSGRALSDYNIGWFRQAPGKEREFVARKTWDGSSTRYDDSVKGRFTVSIEDAKNTAYLQMSSLKTEDTAVYYCAAGRYSRARGWEYDYWGQGTQVTVSSGGGGSGGGGSGGGGSEPKSSDKTHTCPPCPAPELLGGPCVFLFPPKPKDTLMISRTPEVTCVVVDVSHEDPEVKFNWYVDGVEVHNAKTKPREEQYNSTYRVVSVLTVLHQDWLNGKEYKCKVSNKALPAPIEKTISKAKGQPREPQVYTLPPSRDELTKNQVSLTCLVKGFYPSDIAVEWESNGQPENNYKTTPPVLDSDGSFFLTSKLTVDKSRWQQGNVFSCSVMHEALHNHYTQKSLCLSPGK
modifications: MC-vc-PAB-MMAE on Cys of S239C and S442C (EU numbering)
notes: Biparatopic knob-into-hole VHH-hFc heterodimer, DAR 4; The assignment of T366Y to the first named VHH and Y407T to the second follows the order of the name; No paragraph spells out this pair; also called A06-E10 hFc-vcPAB-MMAE; A06-E10hFc-vc-MMAE
IC50 at 96 h, cell-killing of CHO-ALPPL2 cells [1]: 7.3 nM | IC50 at 96 h, cell-killing of CHO-ALPI cells [2]: > 1000 nM | IC50 at 96 h, cell-killing of CHO-ALPL cells [3]: > 1000 nM | binding result [4]: no binding (tested: 350 nM (highest concentration))

MFI on CHO-ALPI cells at 350 nM as percent of MFI on CHO-ALPP cells (KDapp not-determinable) [5]: ≤ 1% | Kd [6]: 9.8 nM | Kd [7]: 4.9 nM
B3: A06 F05-hFc (S239/442C T366Y/Y407T), [G4S]3 linker, MC-vc-PAB-MMAE conjugate, #665 (Fc fusion, DAR 4)
chain 1: B1 chain 1
chain 2: B2 chain 2 with V24A, L29F, S30G, K51R, E73D, D74N, S84N, A104V
modifications: MC-vc-PAB-MMAE on Cys of S239C and S442C (EU numbering)
notes: Biparatopic knob-into-hole VHH-hFc heterodimer, DAR 4; also called A06-F05 hFc-vcPAB-MMAE; A06-F05 hFc-vc-MMAE
IC50 at 96 h, cell-killing of CHO-ALPPL2 cells [1]: 7.9 nM | IC50 at 96 h, cell-killing of CHO-ALPI cells [2]: > 1000 nM | IC50 at 96 h, cell-killing of CHO-ALPL cells [3]: > 1000 nM | binding result [4]: no binding (tested: 350 nM (highest concentration))
